Drawing on patent US20210230307A1, this text covers Kd for one substance.

In this assay the target is Chicken egg white-derived lysozyme (Sigma-Aldrich) (chicken) (UniProt P00698). Kind of assay: SPR, Biacore T200; antigen immobilized, antibody as analyte, as in Example 1. (Surface plasmon resonance follows binding to a sensor surface in real time, without labels.)
Chain of Chicken egg white-derived lysozyme (Sigma-Aldrich) (chicken) (P00698 19-147): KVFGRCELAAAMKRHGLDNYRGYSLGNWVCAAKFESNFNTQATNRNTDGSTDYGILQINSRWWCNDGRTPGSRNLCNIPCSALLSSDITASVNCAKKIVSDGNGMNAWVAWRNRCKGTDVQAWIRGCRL

Turning to “Wild-type mouse anti-lysozyme antibody of clone Hy-HEL5”, the dissociation constant Kd (usually a measure of binding affinity in units of concentration) amounted to 177 pM. This lies in the sub-nanomolar range.
